Results published in patent US20210380648, “DNA BINDING PROTEINS AND USES THEREOF” (Klogenix LLC, published 2021).

B1: ZFP3_Egr1_site3 target (dsDNA)
DNA 1: CTGGCACTGGGGGTGGGGGCA
DNA 2: TGCCCCCACCCCCAGTGCCAG
B2: ZFP52 target (dsDNA)
DNA 1: CGACGTCCGCGGGCGACGCCTGCCGCACCT
DNA 2: AGGTGCGGCAGGCGTCGCCCGCGGACGTCG

What was measured:
[1] = target: ZFP3_Egr1_site3_antisense (VP64); experiment: cell_activity; Klotho protein ELISA in HK-2; also active in HEK293 4 kb promoter reporter; settings: tags: NLS, VP64, HA
Procedure: (§1) ELISA components were purchased from IBL and assays were performed according to the manufacturers instructions.
(§2) Klotho is largely expressed in the brain and kidney, and so further investigations were made using cell lines derived from those organs. The ZFPs were transfected into HK-2 cells and Klotho protein levels were measured.

[2] = target: ZFP3_Egr1_site3_antisense_VPR; experiment: cell_activity; Klotho ELISA in HK-2; settings: tags: NLS, VP64-p65-Rta, HA, V5, His
ZFP3_Egr1_site3_antisense_VPR, sequence (chain, as listed by the source): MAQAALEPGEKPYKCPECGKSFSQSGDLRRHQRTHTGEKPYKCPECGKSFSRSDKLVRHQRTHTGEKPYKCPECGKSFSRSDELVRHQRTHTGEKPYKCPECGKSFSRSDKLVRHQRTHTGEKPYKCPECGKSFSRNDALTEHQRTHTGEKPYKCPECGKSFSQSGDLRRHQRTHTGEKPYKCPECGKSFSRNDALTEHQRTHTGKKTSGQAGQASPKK
Procedure: as §1, §2

ZFP52 (VP64) = experiment: cell_activity; Klotho ELISA in HK-2; settings: tags: NLS, VP64, HA
Procedure: as §1, §2

ZFP52_VPR = experiment: cell_activity; Klotho ELISA in HK-2; settings: tags: NLS, VP64-p65-Rta, HA, V5, His
ZFP52_VPR, sequence (chain, as listed by the source): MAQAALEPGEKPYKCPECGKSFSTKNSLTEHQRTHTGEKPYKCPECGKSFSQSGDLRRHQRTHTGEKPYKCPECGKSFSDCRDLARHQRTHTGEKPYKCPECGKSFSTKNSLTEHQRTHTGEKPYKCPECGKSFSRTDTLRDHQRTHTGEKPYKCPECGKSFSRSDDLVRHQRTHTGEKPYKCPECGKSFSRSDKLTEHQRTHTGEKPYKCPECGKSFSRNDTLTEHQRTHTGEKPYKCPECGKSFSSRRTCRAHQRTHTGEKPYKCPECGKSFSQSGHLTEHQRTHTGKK
Procedure: as §1, §2

Row | Binder | activity [1] | activity [2] | activity (ZFP52 (VP64)) | activity (ZFP52_VPR)
1 | B1 | ~3 fold | ~3 fold | – | –
2 | B2 | – | – | ~2 fold | ~5 fold
